Data: article PMC5570508, “Structural analysis of P. falciparum KAHRP and PfEMP1 complexes with host erythrocyte spectrin suggests a model for cytoadherent knob protrusions” (PLoS Pathogens, 2017)

T1: spectrin β chain domains 10–14 (human, UniProt P11277 1272-1804)
T1 construct: human erythrocyte β spectrin, UniProt P11277, residues 1272-1804; also called β10–14; source: E. coli Rosetta2(DE3), purified (Talon, Q-Sepharose, Superdex 75 or 200); not shown: His10 or His6 (modified pET16b or pET15b), N-terminal, cleaved
T1 sequence (looked up): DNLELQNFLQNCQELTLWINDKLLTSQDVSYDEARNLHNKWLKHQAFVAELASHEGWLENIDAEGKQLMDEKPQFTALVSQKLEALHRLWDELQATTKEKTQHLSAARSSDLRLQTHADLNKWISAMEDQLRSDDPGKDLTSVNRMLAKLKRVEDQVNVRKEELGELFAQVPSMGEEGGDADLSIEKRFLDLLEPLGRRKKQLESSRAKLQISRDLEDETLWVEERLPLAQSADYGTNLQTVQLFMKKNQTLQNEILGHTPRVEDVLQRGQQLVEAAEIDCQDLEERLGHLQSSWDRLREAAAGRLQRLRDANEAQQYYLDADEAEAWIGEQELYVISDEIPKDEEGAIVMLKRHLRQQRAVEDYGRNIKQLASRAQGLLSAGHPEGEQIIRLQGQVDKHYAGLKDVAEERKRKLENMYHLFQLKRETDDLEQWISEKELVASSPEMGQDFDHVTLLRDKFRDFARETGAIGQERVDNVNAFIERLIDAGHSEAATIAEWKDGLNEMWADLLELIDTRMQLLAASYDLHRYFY

B1: KAHRP 5´-repeat scrambled sequence, Scramble 1 (peptide)
chain: CGGSDNSEKNKKEHKKEKSAHEKEKDKKAEHKKDKDGSKKSSEKKKNSTKEHESSEHNHSEHKKSDNHKKKKENKEDDSEKEKNKKSDVVSDNKKTHKKGGKKKSKPKGNKSVHD
modifications: 5-carboxyfluorescein (5-FAM) on a single cysteine at the protein N-terminus
notes: amino acid content of the KAHRP 5´ repeat, randomly scrambled; also called scrambled peptide; source: E. coli, recombinant, purified as the KAHRP fragments; not shown: His10, N-terminal, cleaved
B2: KAHRP 5´-repeat scrambled sequence, Scramble 2 (peptide)
chain: CEKSDDKKESKSKHDGSVKKKSEEKKKDNESSTKSDGKNKKNKKHNEHESKHEHKGEGKKKEHGSNEDHKKKNDNEVKGKHKKSPKKKAETKKNSSHDSDKKEKDSSKKVHNEAK
modifications: 5-carboxyfluorescein (5-FAM) on a single cysteine at the protein N-terminus
notes: as for B1
B3: KAHRP 5´-repeat scrambled sequence, Scramble 3 (peptide)
chain: CHDNKGKKSHDSSGDKKHKNKKSKKKKESPTVDKKEKHEVKKKHKNKKDDVHSEEASKEENKKTEKGKNEKESNAKKSKNSHHDSKKGKEHEGSSKNKDHDKKEKNSDESKKGES
modifications: 5-carboxyfluorescein (5-FAM) on a single cysteine at the protein N-terminus
notes: as for B1
B4: KAHRP 5´-repeat scrambled sequence, Scramble 4 (peptide)
chain: CESNKKNGHEKGGKKSESKHKKKDHAEKEPKNKKGAHHDDSDKSKTKHNSESDEKVHKSESKEKSKDKVGNKGKEKKVSNSEKKDKNKKDHSHSKETKEKDEKDKKHKSSNKENK
modifications: 5-carboxyfluorescein (5-FAM) on a single cysteine at the protein N-terminus
notes: as for B1

Molecular target: T1, spectrin β chain domains 10–14
Assay: fluorescence polarisation; titration: 5-FAM-labeled protein at 0.5 or 1 μM titrated with unlabeled protein; 20°C; analysis buffer (20 mM NaH2PO4, 50 mM NaCl, 1 mM DTT pH 7); single site binding model
Conditions: both partners purified

Row | Binder | binding result
1 | B1 | binds
2 | B2 | binds
3 | B3 | binds
4 | B4 | binds
